We go through one protein from paper PMC2599807 (Biochemistry, 2008).

This data set concerns the molecule itself. Briefly: SEC + other: dynamic light scattering.

B1: O. brevis BxmR (CPx-ATPase metal-regulated repressor), wild-type (natural protein, Oscillatoria brevis, UniProt Q76L30 1-136, looked up)
chain: MSPKSAVNGAISQPHQENDTPTCDRAHLVDCSRVGDIQTQVLNTAKAQRMAEFFSLLGDANRLRLVSVLAKQELCVCDLAATLGMSESAVSHQLRAMRAMRLVSYRKVGRQVFYSLLDRHVLELYRAVAEHLDEES
For the protein B1, the stoichiometry N – broadly, the number of molecules, sites or subunits per partner or assembly – was 2.
